In patent US20160311883A1 (Eli Lilly, published 2016):
Square brackets hold non-standard residues; d marks the D form. Ends that are not written are not given here. Aib = CC(C)(N)C(=O)O

Target: human glucagon receptor (hGR) (human, UniProt P47871 26-477)
Test: cell-based or functional assay

human glucagon receptor (hGR), sequence (P47871 26-477): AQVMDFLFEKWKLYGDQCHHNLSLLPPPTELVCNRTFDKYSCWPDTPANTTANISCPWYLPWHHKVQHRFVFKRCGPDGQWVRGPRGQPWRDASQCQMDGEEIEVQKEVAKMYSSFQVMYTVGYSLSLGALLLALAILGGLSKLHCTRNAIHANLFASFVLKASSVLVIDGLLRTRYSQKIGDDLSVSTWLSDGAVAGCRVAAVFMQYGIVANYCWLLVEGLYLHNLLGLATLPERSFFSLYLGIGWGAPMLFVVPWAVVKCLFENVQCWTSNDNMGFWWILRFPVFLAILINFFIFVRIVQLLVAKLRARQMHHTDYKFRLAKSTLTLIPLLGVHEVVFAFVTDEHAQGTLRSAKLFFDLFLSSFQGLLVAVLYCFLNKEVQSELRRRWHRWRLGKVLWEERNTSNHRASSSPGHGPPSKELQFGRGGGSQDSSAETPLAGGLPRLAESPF

hGR stimulated cAMP functional assay, relative EC50: 0.0658 ηM
B1: compound of SEQ ID NO: 2 (peptide)
peptide: YSHGTFTSDVSKYLD[Aib]KKAAEFVAWLLEE-OH
modifications: N-terminus assumed
SMILES: CC(C)C[C@H](NC(=O)[C@H](Cc1c[nH]c2ccccc12)NC(=O)[C@H](C)NC(=O)[C@@H](NC(=O)[C@H](Cc1ccccc1)NC(=O)[C@H](CCC(=O)O)NC(=O)[C@H](C)NC(=O)[C@H](C)NC(=O)[C@H](CCCCN)NC(=O)[C@H](CCCCN)NC(=O)C(C)(C)NC(=O)[C@H](CC(=O)O)NC(=O)[C@H](CC(C)C)NC(=O)[C@H](Cc1ccc(O)cc1)NC(=O)[C@H](CCCCN)NC(=O)[C@H](CO)NC(=O)[C@@H](NC(=O)[C@H](CC(=O)O)NC(=O)[C@H](CO)NC(=O)[C@@H](NC(=O)[C@H](Cc1ccccc1)NC(=O)[C@@H](NC(=O)CNC(=O)[C@H](Cc1c[nH]cn1)NC(=O)[C@H](CO)NC(=O)[C@@H](N)Cc1ccc(O)cc1)[C@@H](C)O)[C@@H](C)O)C(C)C)C(C)C)C(=O)N[C@@H](CC(C)C)C(=O)N[C@@H](CCC(=O)O)C(=O)N[C@@H](CCC(=O)O)C(=O)O
